B1: TPR t1 (parent)
chain: GACCAAUCUGCCCUCAGAGCUCGAGAACAUCUUCGGAUGCAGAGGAGGCAGGCUUCGGUGGCGCGAUAGCGCCAACGUCCUCAACCUCCAAUGCAUCCCACCACAUGAUGAUGCCUGAAGAGCCUUGGUUUUUUG

Variants of: B1
Test: polymerase ribozyme fitness, log enrichment relative to wild type (log ratio); higher = more active; in vitro selection for triplet polymerase activity
How it was run: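 Mutant libraries of both subunits of a heterodimeric triplet polymerase ribozyme were PCR-built, transcribed, and selected once in triplicate, with frozen incubation at −7 °C and capture of gel-excised extended constructs on streptavidin beads before RT-PCR. Illumina sequencing of input and output libraries was filtered to genotypes with ≥10 input reads and ≥1 read per output. Fitness is the logarithm of genotype enrichment over wild-type enrichment, using inverse-variance-weighted replicate averages. The logarithm is base 2.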

Variant	polymerase ribozyme fitness (log ratio)
GACCAGUCUGCCCUCAGAGCUCGAGAACAUCUUCGGAUGCAGAGCAGGCAGGCUUCGGUGGCGCGAUAGCGCCAACGUCCUCAACCUCCAAUGCAUCCCACCACAUGAUGAUGCCUGAAGAGCCUUGGUUUUUUG	-1.17
GACCAGUCUGCCCUCAGAGCUCGAGAACAUCUUCGGAUACAGAGGAGGCAGGCUUCGGUGGCGCGAUAGCGCCAACGUCCUCAACUUCCAAUGCAUCCCACCACAUGAUGAUGCCUAAAGAGCCUUGGUUUUUUG	-0.696
GACCAUUAUGCCCUCAGAGCUCGAGAACAUCUUCGGAUGCAGAUGAGGCAGGCUUCGGUGGCGCGAUAGCGCCAACGUCCUCAACCUCCAAUGCAUCCCACCACAUAAUGAAGCCUGAAGAGCCUUGGUUUUUUG	-6.05
GACCAGUCUGCCCUCAGAGCUCGAGAACAUCUUCGGAUGCACAGGAGGCAGUCUUCGGUGGCGCGAUAGCGCCAACGUCCUCAACCUCCAAUGCAUCCCACCACAUGAUGAUGCCUGAAGAGCCUUGGUUUUUUG	-2.37
GACCAGUCUGCCCUCAGAGCUCGAGAACAUCUUCGGAUGCAGAGGAGGCAGGCUUCGGUGGCGCGAUAGCGCCAACGUCCUCAACCGCCAAUGCAUCCCACCACAUGAUGAUGCCUGAAGCGCCUUGGUUUUUUG	1.92
GACCAUUCUGCCCUCAGAGCUCGAGAACAUCUUCGGGUGCAGAGGAGGCAGGCUUCGGUGGCGCGAUAGCACCAACGUCCUCAACCUCCAAUGCAUCCCACCACAUGAUGAUGCCUGAAGAGCCUUGGUUUUUUG	-0.537
GACCAUUCUGCCCUCAGAGCUCGAGAACAUCUUCGGAUGCCGAGGAGGCAGGCUUCGGUGGCGCGAUAGCGCCAACGUGCUCAACCUCCAAUGCAUCCCACCACAUGAUGAUCCCUGAAGAGCCUUGGUUUUAUG	-4.49
GACCAGUCUGCCCUCAGAGCUCGAGAACAUCUUCGGAUGCAGAGGAGGCAGGCUUCGGUGGCGCGAUAGCGCCAACGUCCUCAACCUCCAAUGCAUCCCACCACAUGAUGAAGCCUGAAGAGCCUUGGUUUUUUG	1.64
GACCAGUCUGCCCUCAGAGCUCGAGAACAUCUUCGGAUGCAGAGGAGGCAGGCUUCGGUGGCGCGAUAGCGCCAACGUCCUCAACCACCAACGCCUCCCACCACAUGAUGAUGUCUGAAGAGCCUUGGUUUUUUG	-3.66
GACCAUUCUGCCCUCAGAGCUCGAGAACAUCUUCGGAUGCAGAGGGGGCAGGGUUCGGUGGCGCGAUAGCGCCAACGUCCUCAACCUCCAAUGCAUCCCACCACAUGAUGAUGCCUUAAGAGCCUUGGUUUUUUG	-2.98
GACCAUUCUGCCCUCAGAGCUCGAGAACAUCUUCGGAUGCAGAGGAGGCAGGCUUCGGUGGCGCGAUAGCGCCAACGUCCUCAACCUCCAAUGCAUCCCACCACAUGAUGAUGCCUGAAGCGCCUUGGUUUUUUG	1.91
GACCAUUCUGGCCUCAGAGCUCGAGAACAUCUUCGGAUGCAGAGGAGGCAGGCUUCGGUGGCGCGAUAUCGCCAAAGUCCUCAACCUCCAAUGCAUCCCACCACAUGAUGAUGCCUGAAGAGCCGUGGUUUUUUG	-2.63
GACCAUUCUGCCCUCAGAGCUCGAGAACAUCUUCGGAUGCAGAGGGGGCAGGCUUCGGUGGCGCGAUAGUGCCAACGUCCUCAACCUCCAAUGCAUCCCACCACAUGAUGAUGCCUGAAGAGCCUUGGUUUUAUG	-1.52
GACCAUUCUGCCCUCAGAGCUCGAGAUCAUCUUCGGAUGCAGAGGAGGCAGGCUUCGGUGGCGCGAUAGCGCCAACGUCCUCAACCUCCAAUGCAUCCCACCACAUGAUGAUGCCUGAAGGGCCUUGGUAUUUUG	-0.823
GACCAGUCUGCCCUCACAGCUCGAGAACAUCUUCGGAUGCAGAGGAGGCAGGCUUCGGUGGCGCGAUAGCGCCAACGUCCUCAACCUCCAAUGCAUCCCACCACAUGAUGAUGCCUGAAGAGCCUUGGUUUUUUG	-4.39
GACCAUUCUGCCCUCUGAGCUCGAGAACAUCUUCGGAUGCAGAGGAGGCCGGCUUCGGUGGCGCGAUAGCGCCAACGUCCUCCACCUCCAAUGCAUCCCACCACAUGAUGAUGCCUGAAGAGCCUUGGGUUUUUG	-3.64
GACCAGUCUGCCCUCAGAGCUCGAGAACAUCUUCGGAUACAGAGGAGGCAGGCUUCGGUGGCGCGAUAGCGCCAACGUCCUCAACCUCCAAUGCAUCCCACCACAUGAUGAUGCCUGAAGAGUCUUGGUUUUAUG	0.797
GACCAUUCUGCCCUCAGUGCUCGAGAACAUCUUCGGAUGCAGAGGAGGCAGGCUUCGGUGGCGCGAUAGCGCCAACGUCCUCAACCUCCAAUGCAUCCCACCACAUGAUGAUGCCUGAAGAGCCUUGGUUUUUUG	-2.27
GACCAUUCUGCCCUCAGAGCUCGAGAACAUCUUCGGAUGCAGAGGAGGCGGGCUUCGGUGGCGCGAUAGCGCCAACGUCCUCAACCUCCAAUGCAUUCCACCACAUGAUGAUGCUUGAAGAGCCUUGGUUUUUUG	-2.3
GACCAGUCUGCCCUCAGAGCUCGAGAACAUCUUCGGAUGCAGAGGAGGCAGGCUUCGGUGGCGCGAUAACGCCAACGUCCUCAACCUCCAAUGCAUCCCACCACAUGAUGAUGCCUGAAGAGCCUUGGUUUUUUG	-2.86
GACCAGUCCGCCGUCAGAGCUCGAGAACAUCUUCGGAUGCAGAGGAGGCAGGCUUCGGUGCCGCGAUAGCGCCAACGUCCUCAACCUCUUAUGUAUCCCACCACUUGAUGAUGCCUGAAGGGCCUUGGUUUUUUG	-5.89

Variant	polymerase ribozyme fitness (log ratio)
GACCAGUCUGCCCUCAGAGCUCGAGAACAUCUUCGGAUGCAGAGGAGUCAGGCUUCGGUGGCACGAUAGCGCCAACGUCCUCAACCUCCAAUGCAUCCCACCACAUGAUGAUGCCUGAAGAGCCUUGGUUUUUUG	-0.619
GACCAGUCUGCCCUCAGAGCUCGAGAACAUCUUCGGAUGCAGAGGAGGCAGGCUUCGGUGGCGCGAUAGCACCAACGUCCUCAACCUCCAAUGCAUCCCACCACAUGAUGAUGCCUGAAGAGCCUUGGUUUUUUG	-0.397
GACCAUUCUGCCCUCAGAGCUCGAGAACAUCUUCGGAUGCAGAGGAGGCUGGCUUCCGUGGCGCGAUAGCGCCAUCGUCCUCAACCUCCAAUGCAUCCCACCACAUGAUGAUGCCUGAAGAGCCUUGGUUUUUUG	-0.743
GACCAUUCUGCCCUCAGAGCUCGAGAACAUCUUCGGAUGCUGAGGAGGCAGGCUUCGGUGAGGCGAUAGCGCCAACGUCCUCAACCUCCAAUGCAUCCCACCACAUGAUGAAGCCUGAAGAGCCUUGGUUUUUUG	-6.58
GACCAUUCUGCCCUCAGAGCUCGAGAACAUCUUCGGAUGCAGUGGAGGCAGGCUUCGGUGGCGCGAUAGCGCCAACGUCCUCAACCUCCAAUGCAACCCACCACAUGAUGAUGCCUGAAGAACCUUGGUUUUUUG	-2.28
GACCAUUCUGCCCUCAGAGCUCGAGAACAUCUUCGGAUGCAGAGGAGGCAGGCUUCGGUGGCGCGAUAGCGCCGACGUCCUCAACCUCCAAUGCAUCCCACCACAUGAUGAUGCCUGAAGAGCCUUGGUUUUUUG	-0.0819
GACCAGUCUGCCCUCAGAGCUCGAGAACAUCUUCGGAUGCAGAGCAGGCAGGCUUCGGUGGCCCGAUAGCGCCAACGUCCCCAACCUCCAAUGCAUCCCACCACAUGAUGAUGCCUGAAGAGCCUUGGUUUUUUG	-1.8
GACCAGUCUGCCCUCAGAGCUCGAGAACAUCUUCGUAUGCAGAGGAGGCAGGCUUCGGUGGCGCGAUAGCGCCAACGUCUUCAACCUUCAAUGCAUCCCACCACAUGAUCAUGCCUGAAGAGCUUUGGUUUUUUG	-5.65
GACCAGUCUGCCCUCAGAGCUCGAGAACAUCUUCGGAUACAGAGGAGGCAGGCUUCGGUGGCGCGAUAGCGCCAACGUCCUCAACCUCCAAUGCAUCCCACCACAUGAUGAUGCCUGAAGAGCCUUGGUUUUUUG	0.16
GACCAUUCUGCCCUCAGAGCUCGAGAACAUCUUCGGAUGCGGAGGAGGCAGGCUUCGGUGGCGCGAUAGCGCCAACGUCCUCAACCUCCAAUGCAUCCCACCACAUGAUGAUGCCUGAAGAGCCUUGGUUUUUUG	0.32
GACCAGUCUGCCCUCAGAGCUCGAGAACAUCUUCGGAUGCAGAGGAGGCAGGCUUCGGUGGCGCGAUAGCGCCAACGUCCUCAACCUCCAAUGCAUCCCACCACAUGAUGAUGCCUAAAGAGCUUUGGUUUUUUG	-0.162
GACCAGUCUGCCCUCAGAGCUCGAGAACAUCUUCGGAUGCAGAGGAGUCAGCCUUCGGUGGCGCGAUAGCGCCAACGUCCUCAACCUCCAAUGCAUCCCACCACAUGAUGAUGCCUGAAGAGCCUUGGUUUUUUG	-2.21
GACCAGUCUGCCCUCAGAUCUCGAGAACAUCUUCGGAUGCAGAGGAGGCAGGCUUCGGUGGCGCGAUAGUGCCAACGUCCUCAACCUCCAAUGCAUCCCACCACAUGAUGAUGCCUGAAGAGCCUUGGUUUUUUG	-4.25
GACCAUUCUGCCCUCAGAGCUCGAGAACAUCUUCGGAUGCAGAGGAGGCAGGCUUCGGUGGCGCGAUAGCGCCAACGUCCUCAACCUCCUAUGCAUCGCACUACAUGUUGAUGCCUGAAGAGGCUUGGUUUUUUG	-6.7
GACCAGUCUGCCCUCAGAGCUCGAGAACAUCUUCGGAUGCAGAGGAGGCAGGCUUCGGUGGCGCGAUAUCGCCAACGUCCUCAACCUCCAAUGCAUCCCACCACAUGAUGAUGCCUGAAUAGCCUUGGUUUUUUG	0.637
GACCAGUCUUCCCUCAGAGCUCGAGAACAUCUUCGGAUGCAGAGGAGGCAGGCUUAAAUGGCGCGAUAUCGCCAACGUCCUCAACUUCCAAUGCAUCCCACCACAUGAUGAUGCCUGAAGAGCCUUGGUUUUUUG	-1.09
GACCAUUCUGCCCUCAGAGCUCGAGAUCAUCUUCGGAUGCAGAGGAGGCAGGCUUCGGUGGCGCGAUAGCGCCAACGUCCACAACCUCCAAUGCAUCCCACCACAUGAUGAUGCCUGAAGAGCCUUGGUUUUUUG	-3.93
GACCAGACUGCCCUCAGAGCUCGAGAACAUCUUCGGAUGCAGAGGAGGCAGGCUUCGGUGGCGCGAUAGCGCCAACGUCCUCAACCUCCAAUGCAUCCCACCACAUGAUGAUGCCUGAAGAGCCUUGGUUUUUUG	0.167
GACCAGUCUGCCCUCAGAGCUCGAGAACAUCUUCGGAUACAGAGGAGGCAGGCUUCGGUGGCGCGAUGGCGCCAACGUCCUCAACUUCCAAUGCAUCCCACCACAUGAUGAUGCCUAAAGAGCCUUGGUUUUUUG	-5.73
GACCAGUCUGCCCUCAGAGCUCGAGAACAUCUUCGGAUGCAGAGGAGGCAGGCUUCGGUGGCGCGAUAACGCAAACGUCCUCAACCUCCAAUGCAUCCCACCACAUGAUGAUGCCUGAAGAGCCUUGGUUUUUUG	-2.9
GACCAUUCUGGCCUCAGAGCUCGAGAACAUCUUCGGAUGCAGAGGAGUCAGGCUUUGGUGGCGUGAUAGCGCCAACGUCCUCCACCUCCAAUGCAUCCCACCACAUGAUGAUGCCUGAAGAGCCUUGGUUUUUUG	-4.78

From the RNAGym collection of RNA variant scans (doi:10.1073/pnas.2313332121)
